Measurements from patent US20230192860A1 (published 2023).

Tests used:
[1] = target: T1, monovalent hVISTA-ECD (amino acids 32-193 of SEQ ID NO: 1 with a 7xHis tail) (UniProt Q9H7M9 33-193); experiment: SPR; pH 6.7
[2] = target: T1, monovalent hVISTA-ECD (amino acids …); experiment: SPR; pH 6.0
[3] = target: T1, monovalent hVISTA-ECD (amino acids …); experiment: SPR; pH 7.4
[4] = target: T1, monovalent hVISTA-ECD (amino acids …); experiment: SPR; pH 6.7; remark: listed apart in the source
[5] = target: T1, monovalent hVISTA-ECD (amino acids …); experiment: SPR; pH 6.0; remark: listed apart in the source
[6] = target: T1, monovalent hVISTA-ECD (amino acids …); experiment: SPR; pH 7.4; remark: listed apart in the source

T1 sequence (Q9H7M9 other isoform, or with tags, fused parts or gaps): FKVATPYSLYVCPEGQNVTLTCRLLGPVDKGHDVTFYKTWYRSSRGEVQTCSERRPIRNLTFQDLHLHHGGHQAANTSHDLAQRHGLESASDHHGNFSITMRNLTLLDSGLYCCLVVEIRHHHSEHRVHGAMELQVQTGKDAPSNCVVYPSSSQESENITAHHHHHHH

Kd [1] [nM] | Kd [2] [nM] | Kd [3] [nM] | Kd [4] [nM] | Kd [5] [nM] | Kd [6] [nM] | Binder
11 | 2.7 | 41 |  |  |  | P1-068767_E100fF_D102V (antibody, V domains shown) VH: EVQLVESGGGLVQPGKSLRLSCAASGFTLEDYAMHWVRQAPGKGLEWVSGIDWNSENIGYADSVKGRFTISRDNAKNSLYLQMNSLRTEDTALYYCAKVPGYSGGWIDAFDVWGQGTMVTVSS VL: not shown
7.5 | 0.88 | 87 |  |  |  | P1-068767_D52N_D102V (antibody, V domains shown) VH: EVQLVESGGGLVQPGKSLRLSCAASGFTLEDYAMHWVRQAPGKGLEWVSGINWNSENIGYADSVKGRFTISRDNAKNSLYLQMNSLRTEDTALYYCAKVPGYSGGWIDAEDVWGQGTMVTVSS VL: not shown
14 | 1.3 | 170 |  |  |  | P1-068767_D102V (antibody, V domains shown) VH: EVQLVESGGGLVQPGKSLRLSCAASGFTLEDYAMHWVRQAPGKGLEWVSGIDWNSENIGYADSVKGRFTISRDNAKNSLYLQMNSLRTEDTALYYCAKVPGYSGGWIDAEDVWGQGTMVTVSS VL: not shown
17 | 2.1 | 220 |  |  |  | P1-068767_E30D_D102V (antibody, V domains shown) VH: EVQLVESGGGLVQPGKSLRLSCAASGFTLDDYAMHWVRQAPGKGLEWVSGIDWNSENIGYADSVKGRFTISRDNAKNSLYLQMNSLRTEDTALYYCAKVPGYSGGWIDAEDVWGQGTMVTVSS VL: not shown
15 | 1.9 | 280 |  |  |  | P1-068767_E55A_D102V (antibody, V domains shown) VH: EVQLVESGGGLVQPGKSLRLSCAASGFTLEDYAMHWVRQAPGKGLEWVSGIDWNSANIGYADSVKGRFTISRDNAKNSLYLQMNSLRTEDTALYYCAKVPGYSGGWIDAEDVWGQGTMVTVSS VL: not shown

The remaining lines, values behind:

Binder | Kd [1] [nM] | Kd [2] [nM] | Kd [3] [nM] | Kd [4] [nM] | Kd [5] [nM] | Kd [6] [nM]
P1-068761_E55A_E100fF (antibody, V domains shown) VH: EVQLVESGGGLVQPGKSLRLSCAASGFTLEDEAMHWVRQAPGKGLEWVSGINWNSAEIGYADSVKGRFTISRDNAKNSLYLQMNSLRTEDTALYYCAKVPGYSHGWIDAFDVWGQGTMVTVSS VL: not shown |  |  |  | 1.5 | 0.26 | 14
P1-061029.IgG1.3 (antibody, V domains shown) VH: EVQLVESGGGLVQPGKSLRLSCAASGFTLDDYAMHWVRQAPGKGLEWVSGINWNSANIGYADSVKGRFTISRDNAKNSLYLQMNSLRTEDTALYYCAKVPGYSGGWIDAFDVWGQGTMVTVSS VL: not shown | 11 |  | 32 | 11 |  | 32
P1-068761_E32Y_E56N (antibody, V domains shown) VH: EVQLVESGGGLVQPGKSLRLSCAASGFTLEDYAMHWVRQAPGKGLEWVSGINWNSENIGYADSVKGRFTISRDNAKNSLYLQMNSLRTEDTALYYCAKVPGYSHGWIDAEDVWGQGTMVTVSS VL: not shown |  |  |  | 5.1 | 1.2 | 42
P1-068761_E30D_E32Y (antibody, V domains shown) VH: EVQLVESGGGLVQPGKSLRLSCAASGFTLDDYAMHWVRQAPGKGLEWVSGINWNSEEIGYADSVKGRFTISRDNAKNSLYLQMNSLRTEDTALYYCAKVPGYSHGWIDAEDVWGQGTMVTVSS VL: not shown |  |  |  | 2 | 0.24 | 21
